Our source for the expression_or_secretion values is publication PMC2120718.

The data set can be described thus: flow cytometry of surface TCR, anti-CD3 epsilon UCHT1. Particulars: glycan lost; control: JGN transfected with wild-type CD3 gamma. A general note: In flow cytometry, cells or beads pass a laser one at a time.

On to CD3 gamma: N30Q, for which the expression_or_secretion result is given as “no change”. For the substance CD3 gamma: N70Q, the expression_or_secretion entry is “no change”.
